Data: patent US20240181073A1, “Antibody-Drug Conjugates Comprising an Anti-BCMA Antibody” (Sorrento Therapeutics, Inc., priority 2021, published 2024)

Key:
[1] = system: NCI-H929 (BCMA+) cells and K562 (BCMA −) cells; test: In vitro cytotoxicity assay, Example B2, statements across all cell lines; type: cell-based, human; conditions: regardless of BCMA expression level; read-out: average EC50, inhibition of cell proliferation across all cell lines
Description: The in vitro efficacies of ADCs anti-BCMA-Compound 50, anti-BCMA-Compound 51, anti-BCMA-Compound 52, and anti-BCMA-Compound 53, were compared to anti-BCMA-Compound 3. Anti-BCMA-AB1 clone was conjugated with compounds 50, 51, 52, 53 or 3 and the ADCs were evaluated using the following human cancer cell lines: BCMA-negative K562 and BCMA-positive NCI-H929, purchased from the American Type Culture Collection (ATCC; Manassas, VA). […]
The in vitro assays were performed as follows: All cells were harvested by removal of a portion of the cell culture suspension followed by centrifugation at 300 g for 5 minutes, followed by resuspension in cell culture medium (described above in Cell Culture method), viable cell count (as described above in Cell Culture method), and then seeded into 384-well white wall clear bottom plates (Catalog #3765, Corning) at a density of 2,500 cells/well in growth media. […] After treatment, cell viability was determined by CellTiter-Glo 2.0 assay (Catalog #G9243; Promega; Madison, WI, USA) based on the manufacturer's instructions. CellTiter Glo reagent reacts with ATP in metabolically active cells to give a luminescent readout that is directly proportional to the number of viable cells. […] Luminescence was measured using a Tecan Spark microplate reader (Tecan; Mannedorf, Switzerland). […]

BCMA-positive NCI-H929 = test: In vitro cytotoxicity assay (CellTiter-Glo 2.0, 384-well), Example B2; type: cell-based, human
Description: (§1) The in vitro efficacies of ADCs anti-BCMA-Compound 50, anti-BCMA-Compound 51, anti-BCMA-Compound 52, and anti-BCMA-Compound 53, were compared to anti-BCMA-Compound 3. Anti-BCMA-AB1 clone was conjugated with compounds 50, 51, 52, 53 or 3 and the ADCs were evaluated using the following human cancer cell lines: BCMA-negative K562 and BCMA-positive NCI-H929, purchased from the American Type Culture Collection (ATCC; Manassas, VA).
(§2) Cell Culture Method: The cell lines were cultured in RPMI-1640 medium (Catalog #10-041-CV: Corning) supplemented with 10-20% fetal bovine serum (FBS; Catalog #MT35011CV; Corning) and 1× penicillin-streptomycin (Catalog #30-002-Cl, Corning) and maintained at 37° C. in a 5% C02 humidified environment. Viable cell counts were made by Trypan blue exclusion using a Countess or Countess II automated cell counter.
(§3) The in vitro assays were performed as follows: All cells were harvested by removal of a portion of the cell culture suspension followed by centrifugation at 300 g for 5 minutes, followed by resuspension in cell culture medium (described above in Cell Culture method), viable cell count (as described above in Cell Culture method), and then seeded into 384-well white wall clear bottom plates (Catalog #3765, Corning) at a density of 2,500 cells/well in growth media. Plates were maintained at 37° C. The outer wells of plates contained medium only and were used for background subtraction for the cell viability assay. Working solutions of test articles were prepared at 2× final concentrations with 5-fold serial dilutions in complete growth medium. Cell treatment was performed in either technical triplicates or duplicates and maintained at 37° C. for 120-hour assay. After treatment, cell viability was determined by CellTiter-Glo 2.0 assay (Catalog #G9243; Promega; Madison, WI, USA) based on the manufacturer's instructions. CellTiter Glo reagent reacts with ATP in metabolically active cells to give a luminescent readout that is directly proportional to the number of viable cells. Briefly, plates were removed from the incubator and equilibrated to room temperature before addition of CellTiter Glo reagent. Luminescence was measured using a Tecan Spark microplate reader (Tecan; Mannedorf, Switzerland).
(§4) Data Analysis: For Cytotoxicity assays, raw luminescence data was background subtracted with average luminescence from the outer wells containing medium only and normalized to untreated controls using Excel (Microsoft; Albuquerque, NM). Dose-response relationships and EC50 values were determined based on non-linear regression analysis of normalized data fit to a four-parameter logistic equation using GraphPad Prism 8.0.

BCMA-negative K562 = test: as above; type: cell-based, human
Description: as §1, §2, §3, §4

NCI-H929 (BCMA+) cells = test: In vitro cell viability assay (Cell Titer-Glo 2.0), Example B1; type: cell-based, human; conditions: 4-day assays, FIG. 2A
Description: (§5) The in vitro efficacies of ADCs anti-BCMA-Compound 1, anti-BCMA-Compound 2, anti-BCMA-Compound 3, anti-BCMA-Compound 4, anti-BCMA-Compound 5, anti-BCMA-Compound 6, anti-BCMA-Compound 7, and anti-BCMA-Compound 8, were evaluated using the following human cancer cell lines: K562, MM.1R and NCI-H929, purchased from the American Type Culture Collection (ATCC; Manassas, VA). The cells were cultured in RPMI-1640 medium (Gibco ThermoFisher; Waltham, MA) supplemented with 10% heat-inactivated fetal bovine serum (FBS: Corning; Corning, NY, USA) and 1× penicillin-streptomycin (Corning) and maintained at 37° C. in a 5% CO2 humidified environment.
(§6) The in vitro assays were performed as follows: Tumor cells were harvested by centrifugation at 300 g for 5 minutes and plated into 96-well clear bottom white-walled plates (5,000 to 10,000 cells/well in 50 μL complete medium) and maintained at 37° C. Cells were then treated in duplicate with 50 μL of test articles prepared at 2× final concentration that were serially diluted in complete medium and incubated at 37° C. for up to 120 hrs. After treatment, inhibition of cancer cell growth was determined using the Cell Titer-Glo® 2.0 Cell Viability Assay (Promega; Madison, WI, USA) as described by the manufacturers' protocol. Luminescence was measured using a Perkin-Elmer Envision 2104 Microplate Reader (Waltham, MA).
(§7) Data were normalized to non-treated controls using Microsoft Excel (Redmond, WA, USA) and analyzed using GraphPad Prism software (version 8; La Jolla, CA, USA). Half-maximal effective concentrations (EC50) were derived from dose response curves were generated using non-linear regression analysis fit to a 4-parameter logistic equation.

NCI-H929 tumor xenograft = test: In vivo efficacy, NCI-H929 tumor xenograft in SCID beige mice; parameters: species or system CB17 SCID beige mice; conditions: for tumor growth: i.p.
Description: (§8) Female CB17 SCID beige mice, 6 weeks of age, were purchased from Charles River Laboratories.
(§9) Human multiple myeloma tumor cell lines NCI-H929 and OPM2 were cultured and expanded in RPMI 1640 medium supplemented with 10% FBS, 100 units/ml of penicillin and 100 μg/ml of streptomycin at 37° C. in a 5% CO2 humidified environment for a period of 2-3 weeks before harvesting for implantation. Cell viability determined by Trypan blue dye exclusion assay was >90% before implantation. 5 million of OPM2 or NCI-H929 cells in 100 μl of PBS—Matrigel 1:1 (v/v) mixture were inoculated to the right upper flank of each mouse by s.c. injection.
(§10) Tumor volume measurement was started at day 14 after tumor cell inoculation and performed twice weekly. The longest longitudinal diameter as length and the widest transverse diameter as width were measured by using a digital caliper. Tumor volume (TV) were then calculated by the formula: TV=[length×(width)^2]/2 and were analyzed in Excel.
(§11) The treatment was started when average tumor size reaches ˜400, 200 and 150 mm^3 for NCI-H929 tumor xenografts in Experiment I, III and IV, respectively, or ˜240 mm^3 for OPM2 tumor xenograft in Experiment I.
Mice were euthanized when tumor size reached 2000 mm^3.
After tumor-bearing mice were randomized, anti-BCMA antibody (BCMA-AB1 or BCMA-AB2), anti-BCMA antibody conjugate with Compound 3 (BCMA-AB1-3 or BCMA-AB2-3) or iso-type antibody conjugate with Compound 3 (iso-3) diluted in PBS were administered to mice through i.p. injections. Treatment regimens included 8 mg/kg once, 4 mg/kg Q1W×2 and 2 mg/kg biw×4 of anti-BCMA-AB1 or anti-BCMA-AB1-Compound 3 in Experiment I (FIG. 3); 2 mg/kg biw×4 and 0.67 mg/kg biw×4 of anti-BCMA-AB1 or anti-BCMA-AB1-Compound 3 in Experiment II (FIG. 4); 1, 2, 4, and 8 mg/kg once of anti-BCMA-AB1-Compound 3 or iso-3 in Experiment III (FIG. 5); and 4 mg/kg biw×4 of anti-BCMA-AB2 or 2 and 4 mg/kg biw×4 of anti-BCMA-AB2-Compound 3 in Experiment IV (FIG. 6).
Raw data of tumor measurements were analyzed in Excel. Tumor growth curves were plotted using GraphPad Prism 8.0 software and values were presented as mean t SEM.

OPM2 tumor xenograft = test: In vivo efficacy, OPM2 tumor xenograft in SCID beige mice; parameters: species or system CB17 SCID beige mice; conditions: Experiment II, FIG. 4
Description: as §8, §9, §10, §11
Mice were euthanized when tumor size reached 2000 mm^3. […]
Raw data of tumor measurements were analyzed in Excel. […]

K562 (BCMA −) cells = test: In vitro cell viability assay (Cell Titer-Glo 2.0), Example B1; type: cell-based, human; conditions: Table 4; 5-day assays; AB1 clone; read-out: EC50 Values, Cell Line K562
Description: as §5, §6, §7

K562, MM.1R and NCI-H929 = test: In vitro cell viability assay, Example B1, statements over several cell lines; type: cell-based, human; conditions: AB1 clone versus AB2 clone ADCs
Description: as §5
The in vitro assays were performed as follows: Tumor cells were harvested by centrifugation at 300 g for 5 minutes and plated into 96-well clear bottom white-walled plates (5,000 to 10,000 cells/well in 50 μL complete medium) and maintained at 37° C. […] After treatment, inhibition of cancer cell growth was determined using the Cell Titer-Glo® 2.0 Cell Viability Assay (Promega; Madison, WI, USA) as described by the manufacturers' protocol. Luminescence was measured using a Perkin-Elmer Envision 2104 Microplate Reader (Waltham, MA).
Data were normalized to non-treated controls using Microsoft Excel (Redmond, WA, USA) and analyzed using GraphPad Prism software (version 8; La Jolla, CA, USA). […]

[2] = Table 7, 120-hour (5-day) assay, AB1 clone

Molecule: CC[C@H](C)[C@@H]([C@@H](CC(=O)N1CCC[C@H]1[C@H](OC)[C@@H](C)C(=O)N[C@H](CN=[N+]=[N-])Cc1ccc(NC(C)C)cc1)OC)N(C)C(=O)[C@@H](NC(=O)[C@H](C(C)C)N(C)C)C(C)C [D3, reference compound]
- EC50 [1]: 0.88 to 1.53 nM
- EC50 (BCMA-positive NCI-H929; [2]): 1.08 nM
- EC50 (BCMA-negative K562; [2]): 1.52 nM

B1: BCMA-AB1-8 (conjugate)
VH: EVQLVESGGGLVKPGGSLRLSCAASGFTSSTAWMSWVRQAPGKGLEWVGRIKSKSDGGTTDYAAPVKGRFTISRDDSKNTLFLQMNSLKTEDTAVYYCAKGGGTYGYWGQGTTVTVSS
VL: QSVLTQPASVSGSPGQSVTISCTGTSSAHGGHYYVSWYQQHPGKAPKLMIYDVSNRPSGVSNRFSGSKSGNTASLTISGLQAEDEADYYCGSYTSSGSYVFGTGTKLTVL
- cell killing of NCI-H929 (NCI-H929 (BCMA+) cells): comparable activity to the Gly2 peptide linker ADC, anti-BCMA-AB1-7

B2: BCMA-AB1-3: Compound 3 conjugated with anti-BCMA antibody clone BCA7-2C5 (AB1) (conjugate)
VH: EVQLVESGGGLVKPGGSLRLSCAASGFTSSTAWMSWVRQAPGKGLEWVGRIKSKSDGGTTDYAAPVKGRFTISRDDSKNTLFLQMNSLKTEDTAVYYCAKGGGTYGYWGQGTTVTVSS
VL: QSVLTQPASVSGSPGQSVTISCTGTSSAHGGHYYVSWYQQHPGKAPKLMIYDVSNRPSGVSNRFSGSKSGNTASLTISGLQAEDEADYYCGSYTSSGSYVFGTGTKLTVL
- tumor regression / elimination (NCI-H929 tumor xenograft; Experiment I, FIG. 3, all regimens): induced dramatic and prolonged tumor regressions and eliminated all tumors in about two weeks after initial treatments
- tumor growth (NCI-H929 tumor xenograft; Experiment I, FIG. 3, 8 mg/kg once, 4 mg/kg Q1W×2, 2 mg/kg biw×4, start ~400 mm^3): significantly inhibited tumor growth
- tumor regression / elimination (NCI-H929 tumor xenograft; Experiment III, FIG. 5, high doses): induced dramatic and prolonged tumor regressions and eliminated all tumors in about two weeks after initial treatments
- tumor growth (NCI-H929 tumor xenograft; Experiment III, FIG. 5, 1, 2, 4, and 8 mg/kg once): significantly inhibited tumor growth in a dose-dependent manner
- tumor regression / elimination (OPM2 tumor xenograft; high-dose regimen): induced dramatic and prolonged tumor regressions and eliminated all tumors in about two weeks after initial treatments
- tumor growth (OPM2 tumor xenograft; i.p., 2 mg/kg biw×4 and 0.67 mg/kg biw×4): significantly and dose-dependently inhibited tumor growth
- effect on NCI-H929 cell viability (BCMA-positive NCI-H929; 5-day assays, FIG. 8): dose-dependently reduced
- activity against K562 cells (BCMA-negative K562; 5-day assays, FIG. 8): did not show activity
- EC50 (K562 (BCMA −) cells): > 100 nM
- relative potency, comparison of Table 5 and Table 6 (K562, MM.1R and NCI-H929): most potent
